Here are results for 12 molecules from patent US20210101937A1 (Bicycle, published 2021).

*1 amine or outer side, *2 acyl side, *3 side chain or, on linkers, in order; H or OH if unused. Bridges are numbered along the chain shown (N, C = ends). Roman numbers before positions name the chains, in order. Where no end group is shown, it is not given here. [ ]: non-standard residue; d: D form. The star is where a group is joined. TATA = O=C(CC[*:1])N1CN(C(=O)CC[*:2])CN(C(=O)CC[*:3])C1; 1Nal = N[C@@H](Cc1cccc2ccccc12)C(=O)O; Hyp = O=C(O)[C@@H]1C[C@@H](O)CN1; hArg = N=C(N)NCCCC[C@H](N)C(=O)O; tBuAla = CC(C)(C)C[C@H](N)C(=O)O; NMeA = CN[C@@H](C)C(=O)O; Nle = CCCC[C@H](N)C(=O)O; Pent4ynoyl = C#CCCC(=O)*; Mpa = O=C(O)CCS

The target in test [1] is T1, CD137 (UniProt Q07011 24-255, limits assumed). Kind of test: cell-based or functional assay.
T1 sequence (Q07011 24-255 limits assumed): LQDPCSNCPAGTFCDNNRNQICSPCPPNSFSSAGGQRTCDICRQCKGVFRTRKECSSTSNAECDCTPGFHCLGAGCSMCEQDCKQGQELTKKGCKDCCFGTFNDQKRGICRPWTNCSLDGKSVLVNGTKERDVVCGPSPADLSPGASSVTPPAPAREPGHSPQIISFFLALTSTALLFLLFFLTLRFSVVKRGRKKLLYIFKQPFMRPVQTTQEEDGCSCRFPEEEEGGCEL
Test [2] has as its target T1, CD137. Kind of test: cell-based or functional assay. The source holds these as a separate data set.

B1: BCY12582 (peptide)
peptide 1: CP[1Nal][dA]CM[hArg]DWSTP[Hyp]WC
peptide 2: Ac-C[tBuAla]PE[dK](Pent4ynoyl)PYCFADPY[Nle]CA
modifications: linker I:1-I:5-I:15, II:1-II:8-II:15 via TATA; not fully specified (bridges); also: chain 1 N-terminus joined to chain 2 dLys(PYA) by Peg5 linker (heterotandem complex)
B1: in the test with CD137 [1], the “Fold improvement in EC50 over BCY10000 on same plate” value worked out at 1.69 fold and the “Fold improvement in Emax over BCY10000 on same plate” value was determined as 1.32 fold.

B2: BCY12661 (peptide)
peptide 1: XPXDCMXDWSTPXWC
peptide 2: CXEEKPYCFADPYXCX
modifications: [Ac]C[tBuAla]EE(dK)PYCFADPY[Nle]C[Dap(PYA)]; carries the palmitic acid azide of Example 8 (palmitic acid, γGlu, Lys(N3)); Cys residues bonded to TATA scaffold; [PYA]CP[1Nal][dD]CM[HArg]DWSTP[HyP]WC; Cys residues bonded to TATA scaffold
As to B2, in the test with CD137 [1], the “Fold improvement in EC50 over BCY10000 on same plate” value was found to be 0.34 fold and the “Fold improvement in Emax over BCY10000 on same plate” value is 0.5 fold.

B3: BCY12580 (peptide)
peptide 1: CPXKCMXEWSTPXWC
peptide 2: CXPEXPYCFADPYXCA
modifications: Ac-C[tBuAla]PE[D-Lys(PYA)]PYCFADPY[Nle]CA; Cys residues bonded to TATA scaffold; [Ac]CP[1Nal][dK]CM[HArg]EWSTP[HyP]WC; Cys residues bonded to TATA scaffold
As to B3, in the test with CD137 [1], the “Fold improvement in EC50 over BCY10000 on same plate” value is 0.64 fold and the “Fold improvement in Emax over BCY10000 on same plate” value is 0.97 fold.

B4: BCY12583 (peptide)
peptide 1: CP[1Nal][dE]CL[hArg]DWSTP[Hyp]WC
peptide 2: Ac-C[tBuAla]PE[dK](Pent4ynoyl)PYCFADPY[Nle]CA
modifications: linker I:1-I:5-I:15, II:1-II:8-II:15 via TATA; not fully specified (bridges); printed as CP[1Nal][dE]CL[HArg]DWSTP[HyP]WC / Ac-C[tBuAla]PE[D-Lys(PYA)]PYCFADPY[Nle]CA; also: chain 1 N-terminus joined to chain 2 dLys(PYA) by Peg5 linker (heterotandem complex)
With B4, in the test with CD137 [1], the “Fold improvement in EC50 over BCY10000 on same plate” value was 0.6 fold and the “Fold improvement in Emax over BCY10000 on same plate” value came out at 1.47 fold.

B5: BCY11616 (peptide)
peptide 1: CPXDCMXDWSTPXWC
peptide 2: ACIEEKQYCFADPYXCA
modifications: Ac-ACIEE(D-K)(PYA)QYCFADPY(Nle)CA; Cys residues bonded to TATA scaffold; CP[1Nal][dD]CM[HArg]DWSTP[HyP]WC; Cys residues bonded to TATA scaffold
Take B5: in the test with CD137 [1], the “Fold improvement in EC50 over BCY10000 on same plate” value turned out to be 0.21 fold and the “Fold improvement in Emax over BCY10000 on same plate” value was 1.22 fold.

B6: BCY12573 (peptide)
peptide 1: CP[1Nal][dD]CM[hArg]DWSTP[Hyp]WC
peptide 2: [Mpa][tBuAla]PE[dK](Pent4ynoyl)PYCFADPY[Nle]C
modifications: linker I:1-I:5-I:15 via TATA; numbers in words are those of the source; also: two bicycles joined by Peg5 linker, linker at chain B 7 at chain B 14 to a chain's N-terminus via TATA
As for B6, in the test with CD137 [1], the “Fold improvement in EC50 over BCY10000 on same plate” value worked out at 0.74 fold and the “Fold improvement in Emax over BCY10000 on same plate” value is 1.34 fold.

B7: BCY12581 (peptide)
peptide 1: CP[1Nal][dE]CM[hArg]DWSTP[Hyp]WC
peptide 2: Ac-C[tBuAla]PE[dK](Pent4ynoyl)PYCFADPY[Nle]CA
modifications: linker I:1-I:5-I:15, II:1-II:8-II:15 via TATA; not fully specified (bridges); also: chain 1 N-terminus joined to chain 2 dLys(PYA) by Peg5 linker (heterotandem complex)
On to B7, for which, in the test with CD137 [1], the “Fold improvement in EC50 over BCY10000 on same plate” value was found to be 1.35 fold and the “Fold improvement in Emax over BCY10000 on same plate” value stood at 0.88 fold.

B8: BCY12709 (peptide)
peptide 1: CP[1Nal][dD]CM[hArg]DWSTP[Hyp]WC
peptide 2: Ac-C[tBuAla]PE[dK](Pent4ynoyl)PYCFAD[NMeA]Y[Nle]C
modifications: linker I:1-I:5-I:15, II:1-II:8-II:15 via TATA; not fully specified (bridges); also: chain 1 N-terminus joined to chain 2 dLys(PYA) by Peg5 linker (heterotandem complex)
Consider B8, for which, in the test with CD137 [1], the “Fold improvement in EC50 over BCY10000 on same plate” value came to 0.08 fold and the “Fold improvement in Emax over BCY10000 on same plate” value was 2.15 fold.

B9: BCY12577 (peptide)
peptide 1: CPXKCMXDWSTPXX
peptide 2: CXPEXPYCFADPYXCA
modifications: Ac-C[tBuAla]PE[D-Lys(PYA)]PYCFADPY[Nle]CA; Cys residues bonded to TATA scaffold; [Ac]CP[1Nal][dK]CM[HArg]DWSTP[HyP]W[Cysteamine]; reactive groups bonded to TATA scaffold
Take B9: in the test with CD137 [1], the “Fold improvement in EC50 over BCY10000 on same plate” value was 0.25 fold and the “Fold improvement in Emax over BCY10000 on same plate” value came to 1.06 fold.

B10: BCY12020 (peptide)
peptide 1: XCPXDCMXDWSTPXWC
peptide 2: CXPEKPYCFADPYXCX
modifications: [Ac]C[tBuAla]PE[dK]PYCFADPY[Nle]C[Dap(PYA)]; carries Palmitic acid-PEG10 (Example 7); Cys residues bonded to TATA scaffold; [PYA][B-Ala]CP[1Nal][dD]CM[HArg]DWSTP[HyP]WC; Cys residues bonded to TATA scaffold
Take B10: in the test with CD137 [1], the “Fold improvement in EC50 over BCY10000 on same plate” value amounted to 0.15 fold and the “Fold improvement in Emax over BCY10000 on same plate” value was determined as 0.48 fold.

B11: BCY12233 (peptide)
peptide 1: Pent4ynoyl-A[hArg]DC[Hyp]LVNPLCLHP[dD]W[hArg]C
peptide 2: Ac-C[tBuAla]PE[dK]PYCFADPY[Nle]CA
modifications: linker I:4-I:11-I:18, II:1-II:8-II:15 via TATA; linker II:N-II:5 via Peg5; also: two bicycles joined by Peg5 linker
For the molecule B11, in the test with CD137 [2], the “Fold improvement in EC50 over BCY9173 on same plate” value is 1 fold and the “Fold improvement in Emax over BCY9173 on same plate” value is 0.9 fold.

B12: BCY12377 (peptide)
peptide 1: CPXDCMXDWSTPXWC
peptide 2: CXEEKPYCFADPYXC
modifications: [Ac]C[tBuAla]EE[dK(PYA)]PYCFADPY[Nle]C; Cys residues bonded to TATA scaffold; CP[1Nal][dD]CM[HArg]DWSTP[HyP]WC; Cys residues bonded to TATA scaffold
Take B12: in the test with CD137 [1], the “Fold improvement in EC50 over BCY10000 on same plate” value is 0.78 fold and the “Fold improvement in Emax over BCY10000 on same plate” value came to 1.37 fold.
